{"source": "patent US20090155271A1", "about": "(ZymoGenetics, published 2009)", "binders": {"B1": {"name": "human IL-17F (ligand)", "chain": "RKIPKVGHTFFQKPESCPPVPGGSMKLDIGIINENQRVSMSRNIESRSTSPWNYTVTWDPNRYPSEVVQAQCRNLGCINAQGKEDISMNSVPIQQETLVVRRKHQGCSVSFQLEKVLVTVGCTCVTPVIHHVQ", "notes": "also called hIL-17F; huIL-17F"}}, "key": {"[1]": {"biological_target": "T1, human IL-17RC, x1 splice variant, on transfected cells (human, UniProt Q8NAC3 21-791)", "T1 sequence": "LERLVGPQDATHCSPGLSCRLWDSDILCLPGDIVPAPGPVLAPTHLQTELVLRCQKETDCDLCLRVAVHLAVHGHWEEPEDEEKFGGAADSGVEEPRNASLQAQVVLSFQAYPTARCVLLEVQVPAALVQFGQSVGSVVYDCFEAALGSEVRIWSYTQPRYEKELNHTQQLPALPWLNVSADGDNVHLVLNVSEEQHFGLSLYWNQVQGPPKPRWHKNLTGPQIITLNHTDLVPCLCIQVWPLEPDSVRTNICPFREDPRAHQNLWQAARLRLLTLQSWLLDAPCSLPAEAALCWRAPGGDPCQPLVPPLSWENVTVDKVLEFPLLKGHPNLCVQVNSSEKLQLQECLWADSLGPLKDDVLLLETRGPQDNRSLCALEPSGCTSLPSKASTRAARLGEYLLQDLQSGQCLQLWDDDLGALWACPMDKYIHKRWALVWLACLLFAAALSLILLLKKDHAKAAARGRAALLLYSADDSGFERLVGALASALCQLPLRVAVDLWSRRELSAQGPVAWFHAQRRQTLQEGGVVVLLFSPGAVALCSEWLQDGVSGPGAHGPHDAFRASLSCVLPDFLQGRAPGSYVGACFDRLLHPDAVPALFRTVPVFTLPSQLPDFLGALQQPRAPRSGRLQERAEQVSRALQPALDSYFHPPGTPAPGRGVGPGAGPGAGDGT", "assay": "cell-based or functional assay"}, "[2]": {"biological_target": "T1, human IL-17RC, x1 splice variant, on …", "assay": "100x molar cold competitor, 125I IL-17A on BHK hIL-17RC cells", "method": "(§1) Cold competitors were added in 100 fold molar excess. […] Wells were incubated on ice for 1-hour followed by two washes with PBS (Invitrogen 20012-027) and one wash with a high salt solution (1.5M NaCL, 50 mM HEPES pH 7.4). Wells were extracted with 500 ul of 0.8M NaOH for 30 min. at room temperature and counts per minute were measured in a gamma counter (Packard Cobra II A5005)."}, "[3]": {"biological_target": "T1, human IL-17RC, x1 splice variant, on …", "assay": "100x molar cold competitor, 125I IL-17F on BHK hIL-17RC cells", "method": "as §1"}, "[4]": {"biological_target": "T2, human IL-17RA on transfected cells (human, UniProt Q96F46 33-320)", "T2 sequence": "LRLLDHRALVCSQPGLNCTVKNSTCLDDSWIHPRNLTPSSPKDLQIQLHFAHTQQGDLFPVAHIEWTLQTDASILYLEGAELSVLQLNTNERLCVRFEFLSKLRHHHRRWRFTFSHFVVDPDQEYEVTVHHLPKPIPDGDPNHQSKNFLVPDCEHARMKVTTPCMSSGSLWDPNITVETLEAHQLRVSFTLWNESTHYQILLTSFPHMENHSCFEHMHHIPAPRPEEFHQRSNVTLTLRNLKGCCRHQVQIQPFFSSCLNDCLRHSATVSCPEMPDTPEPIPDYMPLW", "assay": "cell-based or functional assay"}, "human IL-17A [5]": {"biological_target": "T3, human IL-17A (human, UniProt Q16552 24-155)", "T3 construct": "also called hIL-17A; huIL-17A", "T3 sequence": "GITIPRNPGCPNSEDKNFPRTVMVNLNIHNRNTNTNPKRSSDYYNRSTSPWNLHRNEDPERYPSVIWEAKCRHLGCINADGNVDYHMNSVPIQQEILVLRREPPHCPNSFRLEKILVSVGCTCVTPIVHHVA", "assay": "Biacore, receptor captured by anti-human IgG-Fc on CM5, ligand series", "from_the_text": "(§2) The protocol was optimized to capture receptor at a theoretical binding max. before injecting a concentration series of each ligand to observe association and dissociation. […] The surface was regenerated with 2×30 sec. injections of pH 1.75 glycine between cycles."}, "human IL-17F [6]": {"biological_target": "B1", "assay": "Biacore, receptor captured by anti-human IgG-Fc on CM5, ligand series", "from_the_text": "as §2"}, "human IL-17A [7]": {"biological_target": "T3, human IL-17A", "assay": "cell-based or functional assay"}, "human IL-17F [8]": {"biological_target": "B1", "assay": "cell-based or functional assay"}, "human IL-17A [9]": {"biological_target": "T3, human IL-17A", "assay": "cell-based or functional assay", "remark": "listed apart in the source"}, "human IL-17F [10]": {"biological_target": "B1", "assay": "cell-based or functional assay", "remark": "listed apart in the source"}, "human IL-17A [11]": {"biological_target": "T3, human IL-17A", "assay": "Biacore, rounded summary of Table 10", "from_the_text": "as §2"}, "human IL-17F [12]": {"biological_target": "B1", "assay": "Biacore, rounded summary of Table 10", "from_the_text": "as §2"}}, "note": "“And” between values parts separate entries of the source, which are not always exact repeats. Identical values can stand only once."}
{"binder": "mouse IL-17A (ligand) AAIIPQSSACPNTEAKDFLQNVKVNLKVFNSLGAKVSSRRPSDYLNRSTSPWTLHRNEDPDRYPSVIWEAQCRHQRCVNAEGKLDHHMNSVLIQQEILVLKREPESCPFTFRVEKMLVGVGCTCVASIVRQAA", "values": [{"measurement": "EC50, ap1/nfkb luciferase in nih3t3/kz142.8/hcytor14x1 cells", "setting": "[1]", "result": "~0.004", "unit": "µg/mL"}]}
{"binder": "B1", "values": [{"measurement": "fold reduction of 125I IL-17A binding", "setting": "[2]", "result": "~7", "unit": "fold"}, {"measurement": "fold reduction of 125I IL-17F binding", "setting": "[3]", "result": "~5", "unit": "fold"}, {"measurement": "EC50, ap1/nfkb luciferase in nih3t3/kz142.8/hcytor14X1 cells", "setting": "[1]", "result": 0.00061, "unit": "µg/mL"}, {"measurement": "EC50, ap1/nfkb luciferase in nih3t3/kz142.8/IL-17R cells", "setting": "[4]", "result": 0.0124, "unit": "µg/mL"}]}
{"binder": "Variant 1454 (exons 1-6 of human IL-17RA and 8-16 of human IL-17RCx1, fused to Fc5) (Fc fusion, also called IL17RA/RC 1454; soluble IL-17RC/IL-17RA polypeptide) SLRLLDHRALVCSQPGLNCTVKNSTCLDDSWIHPRNLTPSSPKDLQIQLHFAHTQQGDLFPVAHIEWTLQTDASILYLEGAELSVLQLNTNERLCVRFEFLSKLRHHHRRWRFTFSHFVVDPDQEYEVTVHHLPKPIPDGDPNHQSKNFLVPDCEHARMKVTTPCMSSALPWLNVSADGDNVHLVLNVSEEQHFGLSLYWNQVQGPPKPRWHKNLTGPQIITLNHTDLVPCLCIQVWPLEPDSVRTNICPFREDPRAHQNLWQAARLRLLTLQSWLLDAPCSLPAEAALCWRAPGGDPCQPLVPPLSWENVTVDKVLEFPLLKGHPNLCVQVNSSEKLQLQECLWADSLGPLKDDVLLLETRGPQDNRSLCALEPSGCTSLPSKASTRAARLGEYLLQDLQSGQCLQLWDDDLGALWACPMDKYIHKEPKSSDKTHTCPPCPAPEAEGAPSVFLFPPKPKDTLMISRTPEVTCVVVDVSHEDPEVKFNWYVDGVEVHNAKTKPREEQYNSTYRVVSVLTVLHQDWLNGKEYKCKVSNKALPSSIEKTISKAKGQPREPQVYTLPPSRDELTKNQVSLTCLVKGFYPSDIAVEWESNGQPENNYKTTPPVLDSDGSFFLYSKLTVDKSRWQQGNVFSCSVMHEALHNHYTQKSLSLSPGK", "values": [{"measurement": "Kd", "setting": "human IL-17A [5]", "result": "0.0439 nM and 0.0382 nM"}, {"measurement": "koff", "setting": "human IL-17A [5]", "result": "6.22e-05 s⁻¹ and 9.95e-05 s⁻¹"}, {"measurement": "kon", "setting": "human IL-17A [5]", "result": "1.42e+06 M⁻¹ s⁻¹ and 2.61e+06 M⁻¹ s⁻¹"}, {"measurement": "Kd", "setting": "human IL-17F [6]", "result": "0.143 nM and 0.126 nM"}, {"measurement": "koff", "setting": "human IL-17F [6]", "result": "0.000261 s⁻¹ and 0.000315 s⁻¹"}, {"measurement": "kon", "setting": "human IL-17F [6]", "result": "1.82e+06 M⁻¹ s⁻¹ and 2.49e+06 M⁻¹ s⁻¹"}, {"measurement": "IC50, luciferase activation of hIL-17RA/NIH3T3/KZ142.8 cells by 0.5 ng/ml IL-17A", "setting": "human IL-17A [7]", "result": 0.007, "unit": "µg/mL"}, {"measurement": "IC50, luciferase activation of hIL-17RA/NIH3T3/KZ142.8 cells by 20 ng/ml IL-17F", "setting": "human IL-17F [8]", "result": 0.48, "unit": "µg/mL"}, {"measurement": "IC50, luciferase activation of hIL-17RCX4/NIH3T3/KZ142.8 cells by 1 ng/ml IL-17F", "setting": "human IL-17F [8]", "result": 0.8, "unit": "µg/mL"}, {"measurement": "IC50, huIL-17A(10 ng/ml) induction of G-CSF in SAEC", "setting": "human IL-17A [9]", "result": 0.14, "unit": "µg/mL"}, {"measurement": "IC50, huIL-17A(10 ng/ml) induction of IL-8 in SAEC", "setting": "human IL-17A [9]", "result": 0.03, "unit": "µg/mL"}, {"measurement": "IC50, huIL-17F(50 ng/ml) induction of G-CSF in SAEC", "setting": "human IL-17F [10]", "result": 1.2, "unit": "µg/mL"}, {"measurement": "IC50, huIL-17F(50 ng/ml) induction of IL-8 in SAEC", "setting": "human IL-17F [10]", "result": 0.57, "unit": "µg/mL"}, {"measurement": "Kd", "setting": "human IL-17A [11]", "result": "~0.04", "unit": "nM"}, {"measurement": "Kd", "setting": "human IL-17F [12]", "result": "~0.14", "unit": "nM"}]}
